This note sets out measurements from paper doi:10.1101/557116 (bioRxiv, 2019).

Positions count from the first letter of the chain named. Names and notes keep the numbering of the source.

In series [1] the target is bacILT7 24-223 (human, UniProt P59901 24-223, fluorescent label (Protein Labeling Kit RED-NHS)). Kind of series: MST.
Series [2] deals with the molecule itself. The series can be described thus: cross-linking.
Series [3] deals with bacILT7 24-435 (human, UniProt P59901 24-435). Kind of series: SPR. On the technique in general: SPR reads the build-up and loss of mass on a sensor chip optically.
Chain of bacILT7 24-435 (P59901 24-435): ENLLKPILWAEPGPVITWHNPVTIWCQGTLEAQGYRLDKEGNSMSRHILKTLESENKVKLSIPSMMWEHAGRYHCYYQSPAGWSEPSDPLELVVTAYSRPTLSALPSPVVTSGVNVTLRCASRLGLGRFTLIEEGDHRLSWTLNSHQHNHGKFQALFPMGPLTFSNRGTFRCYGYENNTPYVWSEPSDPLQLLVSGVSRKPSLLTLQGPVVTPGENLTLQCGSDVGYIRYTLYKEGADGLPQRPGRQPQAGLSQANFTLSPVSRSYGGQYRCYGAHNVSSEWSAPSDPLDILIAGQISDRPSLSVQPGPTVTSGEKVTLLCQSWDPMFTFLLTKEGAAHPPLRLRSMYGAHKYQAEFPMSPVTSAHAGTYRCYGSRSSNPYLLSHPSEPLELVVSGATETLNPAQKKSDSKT

Chain of bacILT7 24-223 (P59901 24-223): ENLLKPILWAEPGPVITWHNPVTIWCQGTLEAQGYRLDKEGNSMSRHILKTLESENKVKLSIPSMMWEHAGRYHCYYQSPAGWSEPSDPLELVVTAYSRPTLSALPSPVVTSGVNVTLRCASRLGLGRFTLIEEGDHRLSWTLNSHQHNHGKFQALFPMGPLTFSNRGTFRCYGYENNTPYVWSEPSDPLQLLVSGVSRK

B1: BST2 ectodomain (residues 47 to 159) WT (domain or fragment, human, UniProt Q10589 47-159, looked up)
chain: KANSEACRDGLRAVMECRNVTHLLQQELTEAQKGFQDVEAQAATCNHTVMALMASLDAEKAQGQKKVEELEGEITTLNHKLQDASAEVERLRRENQVLSVRIADKKYYPSSQD
One may read the Kd as the free concentration of one partner at which half of the binding sites on the other are occupied at equilibrium, for simple one-to-one binding. Higher therefore signals lower affinity. As to B1, the affinity in series [1], expressed as Kd, was 2.45 ± 0.3 µM.

B2: BST2 ectodomain (residues 47 to 159) L70D (domain or fragment, human, UniProt Q10589 47-159, looked up)
chain: B1 chain with L24D
B2 came in with a Kd in series [1] of 5.55 ± 1 µM.

B3: BST2 ectodomain (residues 47 to 159) R136A (domain or fragment, human, UniProt Q10589 47-159, looked up)
chain: B1 chain with R90A
For orientation: stoichiometry N means a count of units in the complex or per binding partner. Turning to B3, the “stoichiometry N” value in series [2] was 2.

B4: BST2 ectodomain (residues 47 to 159) L127C (domain or fragment, human, UniProt Q10589 47-159, looked up)
chain: B1 chain with L81C
As to B4, in series [1], the affinity, expressed as Kd, was 6.45 ± 1.2 µM.

B5: BST2 ectodomain (residues 47 to 159) D129A (domain or fragment, human, UniProt Q10589 47-159, looked up)
chain: B1 chain with D83A
On to B5, for which the “stoichiometry N” value in series [2] was 2.

B6: BST2 ectodomain (residues 47 to 159) T90P (domain or fragment, human, UniProt Q10589 47-159, looked up)
chain: B1 chain with T44P
For B6, binding in series [1] was characterised by a dissociation constant (Kd) of 4.49 ± 0.9 µM.

B7: BST2 ectodomain (residues 47 to 159) Q87H (domain or fragment, human, UniProt Q10589 47-159, looked up)
chain: B1 chain with Q41H
B7 returned a Kd in series [1] of 5.06 ± 1.1 µM.

B8: GST-BST2 (80-147) (domain or fragment, human, UniProt Q10589 80-147, looked up)
chain: GFQDVEAQAATCNHTVMALMASLDAEKAQGQKKVEELEGEITTLNHKLQDASAEVERLRRENQVLSVR
By koff is commonly meant the rate constant with which the complex falls apart. A lower koff goes with a long-lived complex. What is called kon is the rate constant with which the complex forms. Higher therefore signals fast association. In series [3], B8 had an equilibrium dissociation constant (Kd) of 2.62 µM, a koff of 0.00238 s⁻¹ and a kon of 908 M⁻¹ s⁻¹.
